Measured values as given in the supplement of paper PMC9112550, “Optimization of the antimicrobial peptide Bac7 by deep mutational scanning” (BMC Biology, 2022).

Tested on: Escherichia coli TOP10
Experiment: shrunken log2 fold change of peptide-encoding DNA abundance (4.5 h post-induction vs induction); higher = less antimicrobial activity (less host growth inhibition)
Settings: time post-induction: 4.5 h; library: site-saturation at positions 5, 18, 19, 20
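Further: peptides expressed intracellularly from a pBAD plasmid library in pooled LB shake-flask culture, induced with 0.3% L-arabinose, DNA abundance read by NGS, three biological replicates, DESeq2 with apeglm shrinkage.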

Sequence	shrunken log2 fold change
RRIRHRPPRLPRPRPRPYEAPRP	-0.445
RRIRMRPPRLPRPRPRPFIEPRP	-0.0583
RRIRNRPPRLPRPRPRPDCEPRP	0.0108
RRIRQRPPRLPRPRPRPRVRPRP	0.329
RRIRLRPPRLPRPRPRPHMQPRP	-0.556
RRIRARPPRLPRPRPRPVDTPRP	0.186
RRIRKRPPRLPRPRPRPAKNPRP	0.487
RRIRCRPPRLPRPRPRPHHIPRP	-0.88
RRIRQRPPRLPRPRPRPGDPPRP	0.0572
RRIRWRPPRLPRPRPRPCCGPRP	0.293
RRIRMRPPRLPRPRPRPNQQPRP	0.0339
RRIRLRPPRLPRPRPRPIDKPRP	-0.122
RRIRPRPPRLPRPRPRPEYPPRP	0.045
RRIRPRPPRLPRPRPRPMQEPRP	-0.0107
RRIRERPPRLPRPRPRPFAMPRP	-0.207
RRIRHRPPRLPRPRPRPFCGPRP	0.336
RRIRMRPPRLPRPRPRPPKNPRP	1.18
RRIRSRPPRLPRPRPRPFTVPRP	-0.0157
RRIRVRPPRLPRPRPRPREFPRP	0.126
RRIRRRPPRLPRPRPRPFHCPRP	0.089
RRIRNRPPRLPRPRPRPFQKPRP	-0.185
RRIRERPPRLPRPRPRPCLNPRP	-0.267
RRIRSRPPRLPRPRPRPLCVPRP	-0.143
RRIRVRPPRLPRPRPRPNMVPRP	-0.201
RRIRKRPPRLPRPRPRPWMIPRP	0.0508

Sequence	shrunken log2 fold change
RRIRMRPPRLPRPRPRPPLQPRP	0.661
RRIRNRPPRLPRPRPRPYMAPRP	-0.0692
RRIRQRPPRLPRPRPRPWTTPRP	-0.0827
RRIRVRPPRLPRPRPRPPWEPRP	0.252
RRIRLRPPRLPRPRPRPLWHPRP	0.0621
RRIRNRPPRLPRPRPRPDEKPRP	-0.133
RRIRKRPPRLPRPRPRPALHPRP	0.374
RRIRHRPPRLPRPRPRPVRTPRP	0.314
RRIRPRPPRLPRPRPRPPALPRP	0.388
RRIRLRPPRLPRPRPRPGYKPRP	-0.514
RRIRIRPPRLPRPRPRPKKEPRP	-0.438
RRIRSRPPRLPRPRPRPKYWPRP	-0.166
RRIRGRPPRLPRPRPRPFKSPRP	0.08
RRIRQRPPRLPRPRPRPAWKPRP	0.0232
RRIRIRPPRLPRPRPRPTHLPRP	-0.0268
RRIRCRPPRLPRPRPRPMHLPRP	0.0527
RRIRGRPPRLPRPRPRPKKCPRP	0.544
RRIRCRPPRLPRPRPRPQSWPRP	0.69
RRIRTRPPRLPRPRPRPRCCPRP	0.0734
RRIRIRPPRLPRPRPRPIGHPRP	-0.0672
RRIRFRPPRLPRPRPRPYKMPRP	-0.62
RRIRNRPPRLPRPRPRPITIPRP	-0.366
RRIRKRPPRLPRPRPRPVLCPRP	0.241
RRIRNRPPRLPRPRPRPPGKPRP	0.484
RRIRKRPPRLPRPRPRPREEPRP	1.2

Sequence	shrunken log2 fold change
RRIRNRPPRLPRPRPRPEIQPRP	-0.0724
RRIRYRPPRLPRPRPRPTMPPRP	-0.725
RRIRCRPPRLPRPRPRPWNTPRP	-0.575
RRIRFRPPRLPRPRPRPQSIPRP	0.0159
RRIRWRPPRLPRPRPRPQFRPRP	-0.0234
RRIRQRPPRLPRPRPRPCWTPRP	-0.0267
RRIRNRPPRLPRPRPRPSKHPRP	-0.545
RRIRNRPPRLPRPRPRPYEMPRP	-0.0417
RRIRRRPPRLPRPRPRPGVLPRP	0.465
RRIRKRPPRLPRPRPRPLMSPRP	0.0201
RRIRTRPPRLPRPRPRPMNPPRP	-0.141
RRIRERPPRLPRPRPRPNFKPRP	-0.181
RRIRGRPPRLPRPRPRPITRPRP	0.133
RRIRLRPPRLPRPRPRPNTKPRP	-0.543
RRIRIRPPRLPRPRPRPQTKPRP	0.13
RRIRMRPPRLPRPRPRPCLMPRP	0.0359
RRIRARPPRLPRPRPRPEAVPRP	1.59
RRIRFRPPRLPRPRPRPPYKPRP	-0.279
RRIRYRPPRLPRPRPRPPRFPRP	0.0549
RRIRLRPPRLPRPRPRPRSMPRP	-0.326
RRIRHRPPRLPRPRPRPDICPRP	-0.622
RRIRSRPPRLPRPRPRPYEVPRP	0.07
RRIRYRPPRLPRPRPRPHHQPRP	-1.06
RRIRIRPPRLPRPRPRPMKGPRP	-0.0335
RRIRCRPPRLPRPRPRPYHKPRP	-0.743

Sequence	shrunken log2 fold change
RRIRCRPPRLPRPRPRPLWCPRP	-0.208
RRIRPRPPRLPRPRPRPQNNPRP	-0.812
RRIRDRPPRLPRPRPRPTNRPRP	-0.149
RRIRHRPPRLPRPRPRPEFTPRP	-0.0939
RRIRRRPPRLPRPRPRPNWVPRP	0.00352
RRIRGRPPRLPRPRPRPQFEPRP	0.156
RRIRYRPPRLPRPRPRPNVSPRP	-0.0178
RRIRMRPPRLPRPRPRPFGQPRP	0.0853
RRIRTRPPRLPRPRPRPHMYPRP	-0.275
RRIRMRPPRLPRPRPRPLLLPRP	-0.32
RRIRYRPPRLPRPRPRPYALPRP	-0.172
RRIRARPPRLPRPRPRPDLHPRP	0.474
RRIRSRPPRLPRPRPRPMHRPRP	0.0682
RRIRIRPPRLPRPRPRPKSWPRP	0.327
RRIRKRPPRLPRPRPRPVMQPRP	0.041
RRIRRRPPRLPRPRPRPTMQPRP	0.275
RRIRRRPPRLPRPRPRPNYDPRP	-0.187
RRIRIRPPRLPRPRPRPRNIPRP	-0.00545
RRIRDRPPRLPRPRPRPKKAPRP	0.0426
RRIRIRPPRLPRPRPRPLMQPRP	-0.564
RRIRWRPPRLPRPRPRPTIAPRP	0.367
RRIRKRPPRLPRPRPRPFELPRP	-0.000946
RRIRERPPRLPRPRPRPRWFPRP	0.0416
RRIRERPPRLPRPRPRPYFIPRP	-1.17
RRIRKRPPRLPRPRPRPCPPPRP	0.0811

Sequence	shrunken log2 fold change
RRIRTRPPRLPRPRPRPIVMPRP	-0.114
RRIRTRPPRLPRPRPRPYYWPRP	-0.0825
RRIRGRPPRLPRPRPRPMRFPRP	0.112
RRIRTRPPRLPRPRPRPIYSPRP	-0.571
RRIRARPPRLPRPRPRPGYGPRP	0.277
RRIRVRPPRLPRPRPRPKHFPRP	0.0968
RRIRYRPPRLPRPRPRPGLQPRP	-0.0156
RRIRCRPPRLPRPRPRPMCYPRP	-0.244
RRIRVRPPRLPRPRPRPCIYPRP	-0.533
RRIRNRPPRLPRPRPRPESIPRP	-0.24
RRIRNRPPRLPRPRPRPARWPRP	0.531
RRIRTRPPRLPRPRPRPLIEPRP	-0.325
RRIRFRPPRLPRPRPRPSDKPRP	-0.355
RRIRLRPPRLPRPRPRPVTRPRP	0.0329
RRIRARPPRLPRPRPRPCAQPRP	0.483
RRIRVRPPRLPRPRPRPFLLPRP	-0.769
RRIRHRPPRLPRPRPRPQCAPRP	0.191
RRIRGRPPRLPRPRPRPDFCPRP	2.03
RRIRPRPPRLPRPRPRPQPKPRP	0.147
RRIRLRPPRLPRPRPRPFNFPRP	-0.855
RRIRLRPPRLPRPRPRPCPVPRP	-0.393
RRIRHRPPRLPRPRPRPKDRPRP	0.00902
RRIRLRPPRLPRPRPRPSGIPRP	-0.267
RRIRWRPPRLPRPRPRPFTWPRP	-0.119
RRIRARPPRLPRPRPRPEQEPRP	0.00961

Sequence	shrunken log2 fold change
RRIRWRPPRLPRPRPRPVWNPRP	-0.232
RRIRDRPPRLPRPRPRPVLHPRP	0.0367
RRIRTRPPRLPRPRPRPERSPRP	0.104
RRIRKRPPRLPRPRPRPHPAPRP	0.429
RRIRWRPPRLPRPRPRPFVWPRP	0.128
RRIRTRPPRLPRPRPRPYCEPRP	-0.416
RRIRYRPPRLPRPRPRPIYFPRP	0.548
RRIRDRPPRLPRPRPRPKNGPRP	0.74
RRIRHRPPRLPRPRPRPCFNPRP	-0.588
RRIRARPPRLPRPRPRPIYDPRP	-0.138
RRIRKRPPRLPRPRPRPLQSPRP	0.295
RRIRERPPRLPRPRPRPGWAPRP	0.487
RRIRIRPPRLPRPRPRPMWVPRP	-0.11
RRIRGRPPRLPRPRPRPTQYPRP	0.337
RRIRPRPPRLPRPRPRPGFNPRP	-0.173
RRIRKRPPRLPRPRPRPITSPRP	0.22
RRIRNRPPRLPRPRPRPKITPRP	-0.367
RRIRSRPPRLPRPRPRPWIYPRP	-0.187
RRIRARPPRLPRPRPRPLNNPRP	-0.346
RRIRLRPPRLPRPRPRPSYCPRP	-0.413
RRIRIRPPRLPRPRPRPWYLPRP	-0.166
RRIRCRPPRLPRPRPRPVDVPRP	-0.375
RRIRMRPPRLPRPRPRPTITPRP	0.114
RRIRPRPPRLPRPRPRPTRTPRP	0.508
RRIRMRPPRLPRPRPRPYFCPRP	-0.352
